Residue numbers refer to the chain shown, from its start.
Tests used:
[1] = target: T1, FLAG-tagged Cynomolgus PrP^c_N1 (cynomolgus monkey, UniProt P67992 23-111); test: direct HTRF binding assay
T1 sequence: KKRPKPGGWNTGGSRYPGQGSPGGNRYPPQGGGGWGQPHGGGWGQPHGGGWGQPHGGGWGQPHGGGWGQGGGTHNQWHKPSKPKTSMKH

[2] = target: T2, FLAG-tagged human PrP^c_N1 (recombinant N-terminal fragment of cellular prion protein, 23-111 amino-acids) (human, UniProt P04156 23-111)
T2 sequence: T1 sequence with N75S, H78N, S86N

[3] = target: T3, Human PrP^c_N1_Flag His protein (human, UniProt P04156 23-111)
T3 sequence: T1 sequence with N75S, H78N, S86N

[4] = target: full length cynomolgus PrP^c present on the cynomolgus CynoMK-1 cell line (cynomolgus monkey, UniProt P67992 23-230); test: flow cytometry, antibody at 5 µg/ml

B1: PrP^c-O0059 Hu IgG1 (antibody, V domains shown)
VH: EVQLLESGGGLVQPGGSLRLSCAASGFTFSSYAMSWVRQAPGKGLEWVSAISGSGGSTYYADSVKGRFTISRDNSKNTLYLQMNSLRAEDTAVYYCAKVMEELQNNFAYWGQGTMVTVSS
VL: QSVLTQPPSASGTPGQRVTISCSGERSDIGINYVSWYQQLPGTAPKLLIYTDDRRPPGVPDRFSASKSGTSASLAISGLRSEDEADYYCEAWHDVLGHPVFGGGTKLTVL
binding result [1]: binds
IC50 [2]: 0.225 nM
Kd [3]: 0.0235 nM
koff [3]: 1.33e-05 s⁻¹
kon [3]: 564000 M⁻¹ s⁻¹
binding result [4]: binds
